± gives the half width of the 95% confidence interval.
Key:
[1] = folding stability dG unfold from trypsin proteolysis; higher = more stable
Summary of the method: (§1)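 Mini-proteins designed to be under 80 residues and free of cysteine were carried in a PA-tagged cDNA display construct and digested with trypsin and with chymotrypsin. Each protease was applied at 11 threefold-diluted concentrations, alongside a no-protease condition, before sequencing. K50 came from Bayesian fitting of the sequencing counts, and unfolding free energy was obtained by comparing it with a sequence-predicted unfolded-state K50 and a shared folded-state K50, for each protease separately or for both together. Designs were retained only if their AlphaFold2 dimer inter-PAE exceeded 15.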

[2] = folding stability dG unfold from chymotrypsin proteolysis; higher = more stable
Summary of the method: as §1

[3] = folding stability dG unfold (combined trypsin and chymotrypsin); higher = more stable
Summary of the method: as §1

Sequence | folding stability dG unfold [1] [kcal/mol] | folding stability dG unfold [2] [kcal/mol] | folding stability dG unfold [3] [kcal/mol]
SAGMGLVGRTKDGKWIPAADLTEEQLKDMELDLGEPLPPVVVKVEVEWKLSPEDKLEVKLKVEVFVEGSAGG [r19_232_TrMRF] | 1.02 ± 0.15 | 2.87 ± 0.07 | 2.17 ± 0.2
SAAKKVVTVPLPFLAPENSITPEELVALAVAAFEKLFPGAKIEKFEFNMPVFRLPGDGVIVVVEITDTSSAG [r14_145_TrMRF] | 2.04 ± 0.041 | 2.411 ± 0.024 | 2.32 ± 0.088
SAGMGEAELAAARAANPDRPLVPVETYEIPLPPDVSLEEVEKELREKYPPGKVKVTADPATGTVTITISSAG [r5_694_JUSTAS] | -0.221 ± 0.14 | 0.969 ± 0.04 | 0.684 ± 0.15
SAGGSAGGSKQILKKLGLPPGKEVQIMMTPNDMNELRDLPGIKSIKMEPRPDGYYQHSIRIDNSAGGSAGGS [r12_750_TrROS] | -1.31 ± 0.59 | -0.386 ± 0.33 | -0.583 ± 0.49
SAGGSAGGSGPMPVVVPVEVVVAPGEVDAYVARLRAEGLEVLSVETEPDPEGGTRVTVTVRRLSAGGSAGGS [r12_905_JUSTAS] | 2.74 ± 0.054 | 3.72 ± 0.057 | 3.41 ± 0.059
SAGGSAGGLYIVRIEIYHPENGKEWTIMIPVPSEEEAKEEAEELAKTFAKKNGYKIEVEVFPLPSAGGSAGG [r6_787_TrROS] | 1.53 ± 0.033 | 2.5 ± 0.067 | 2.11 ± 0.1
SAGGSAGGSAMKVTVEEEELEVEPGETVKIKIRLPNGEEREFSLEDLKKLPPGEAEVEIERVSAGGSAGGSA [r18_394_TrROS_Hall] | 0.583 ± 0.076 | 0.729 ± 0.13 | 0.785 ± 0.18
SAGGSATAEELAEEIAREIAEAFPAEVVRVEVEEVDEDRVVFRMEVRVPLPDGSTVRAPFTVVVPASAGGSA [r15_276_TrMRF] | 0.572 ± 0.042 | 0.778 ± 0.14 | 0.693 ± 0.1
SAGGMKIKITEVTVTRYYYDPKTGKLKKVEKVKVLVIEVELEPGQTAEEIAAALKKLFPDLKIVVVDSAGGS [r8_30_TrROS_Hall] | 4.14 ± 0.092 | 5.33 ± 0.11 | 5.17 ± 0.18
SAGGSAGGSADVVVEVEYDSSGDYVLVKVKLKEKEIPFKFSKSLSPEEVIEKAKELAKKAAKSAGGSAGGSA [r18_266_TrMRF] | 0.597 ± 0.098 | 0.584 ± 0.27 | 0.677 ± 0.13
SPNFERYEHTIEIELPNGRRIKIDVEMYRPPDGNPWARIKIEVEDNNGEPKKKDIWMPMNDAEKAIEDLLSA [r9_189_TrROS] | 1.9 ± 0.14 | 1.85 ± 0.093 | 1.99 ± 0.43
SDDPKDKKKPKPEITMVPIVFKIPPGDELKIEEDPNGMIEVRVPNGHWIRVWILVNPDGNILNVMIEPWPSA [r9_1195_TrROS] | 2.01 ± 0.15 | 3.21 ± 0.066 | 2.82 ± 0.23
SAGGAFAVVDAGDKVITITVYNPDGELVAPAEIPVLDPETGESDALNIPLEELEKLAGVPIELEPAGSAGGS [r16_778_TrMRF] | 0.977 ± 0.059 | 1 ± 0.025 | 1.03 ± 0.1
SAGGGSVPAEHLVSVSYEKPPWSDEPVITVTALKGGKPVTFTIPSSLSEEEALEAVEKAIAAGPFALGSAGG [r13_225_JUSTAS] | 0.638 ± 0.055 | 0.579 ± 0.13 | 0.675 ± 0.099
SAMVTIDYETLKELYEAGDPAKVEEILKKAYEEDPNKTITVIVPEDEKYKNLVLEAAKKMGLPITITGPSAG [r14_236_JUSTAS] | 2.46 ± 0.068 | 3 ± 0.051 | 2.83 ± 0.073
SAGGGTYYLIFKITETKTDPKTGKTTTSEKVIVDPLENPGSISAEEIAKLKEELEPKGYTVEIEIKPKSAGG [r13_926_JUSTAS] | 0.654 ± 0.045 | 1.41 ± 0.27 | 1.07 ± 0.23
SAGGSTTITLPDGRTATVEPDPNGVERYTVPGHPGVYIEKDPSTNKLTVTTVDPSSGSPVTSVIEESAGGSA [r2_477_JUSTAS] | 0.243 ± 0.043 | -0.572 ± 0.44 | 0.0736 ± 0.15
SAGTTVTLTDPVTGNVTTITKDPTDPNLWTVTLPDGSSVTAKRSEIAKKLGLSPEKLLSDYPVPSVSLTSAG [r5_156_JUSTAS] | 1.94 ± 0.031 | 1.88 ± 0.024 | 1.94 ± 0.038
SAGGSAGGSAGEPKIIPIKLPENAKVEEFENPDGYPIKIFENPDNGEIWIVWPDGKIWPISAGGSAGGSAGG [r11_601_TrROS] | 1.19 ± 0.051 | 0.719 ± 0.056 | 0.93 ± 0.067
SAGMPKPIRLLVRNPETGKYFLVEVEEPEELVTVTLLDPETGEVRAVFEGPLEEIIAALEAEGFEVEPVSAG [r5_291_TrMRF] | 4.47 ± 0.16 | 4.438 ± 0.042 | 4.442 ± 0.036
SAGGSAGGSESKITILVLDEETQELYLIEVTLKYNPETGELETEMKIEKITLKPGEKLDLKDLSAGGSAGGS [r12_700_TrROS_Hall] | 2.43 ± 0.2 | 3.28 ± 0.13 | 2.94 ± 0.2

Sequence | folding stability dG unfold [1] [kcal/mol] | folding stability dG unfold [2] [kcal/mol] | folding stability dG unfold [3] [kcal/mol]
SAGGSAGGSAGGPPKPIKVLLYKPEENKLYVLVFPEGVSLEEVKKYVESHPNFKIVSVEGSAGGSAGGSAGG [r7_624_TrMRF] | 2.04 ± 0.087 | 3 ± 0.051 | 2.72 ± 0.11
SAGGSWIEFMIMVPYPDGKPLEDLPPEEVVDIAKTFMSDFGYKIKDINVQYNPDDGYVHVPIEIKPSAGGSA [r2_237_TrROS] | 1.26 ± 0.074 | 1.09 ± 0.2 | 1.21 ± 0.2
SAGGKIPISPEALKALDEALKNGDKGDTIPIQTPDGHYIVITPNGRMRFHNGNEREFPIGKIKAIIWSAGGS [r16_664_TrROS] | -0.149 ± 0.14 | 0.241 ± 0.2 | 0.156 ± 0.12
SAGGSKSKIISASVFTTPDGEKVGVIKVLVKDPNGNPHLVIATIYSDGKIKVSVYYNGKVYTFEFDSAGGSA [r2_182_TrMRF] | 2.41 ± 0.079 | 3.95 ± 0.037 | 3.52 ± 0.12
SAMKEGETVRIELVVVVPPGASVEELADALRALFGPDAEIRVEVEEVTVEVDGKTYRVLTVRVEIRLRKSAG [r14_633_TrROS_Hall] | 3.44 ± 0.05 | 4.5 ± 0.059 | 4.18 ± 0.057
SAGMVRIELRPRPDGRPIALIDVGAPGGPPRRFEIEVDETETLDDIAERLRAEGFDLPEGIDLEELAGSAGG [r19_263_TrMRF] | 1.08 ± 0.018 | 2.243 ± 0.011 | 1.91 ± 0.044
SAGGSAGGSSAEEVAASYPVTEVEYDPVTNTTTVTAEFPDSRIVLTYDPATGTVTTEVLPPLRSAGGSAGGS [r12_214_JUSTAS] | 0.508 ± 0.018 | 0.749 ± 0.035 | 0.654 ± 0.17
SAGGKEVYKVEIEVRLVKVPPGATVTLEEENGELTLTVTAPPGEEVLVIRIKVEKVKLPKPEKKKKKKSAGG [r13_804_TrROS_Hall] | 2.22 ± 0.27 | 3.45 ± 0.18 | 2.79 ± 0.45
SAGAQPIKLKLVDPNGWEIDDIEIEYSPNGMYMIGIENPDNGRPMHIQYNPDDGKIEIRWPNGKLFEIESAG [r5_809_TrROS] | 0.713 ± 0.041 | 0.902 ± 0.13 | 0.841 ± 0.12
SAGGSAGGSKLKLEIPPGFKNVEIEVLKYNPDNGYIRVKITIYDPNNGKQFTMDRWIPADDLKSAGGSAGGS [r12_964_TrROS] | 1.62 ± 0.099 | 1.65 ± 0.16 | 1.56 ± 0.19
SAGMVVLTEPGNGRLVVSELPEELAEEIARELGLPDITPVPPGVPAEEARAAHPALTAALEIPPEVLLSAGG [r19_270_JUSTAS] | -0.149 ± 0.16 | 0.0886 ± 0.032 | 0.0846 ± 0.14
SAGGMIKIEKEEDGTLRITIVVPEKEEEAEELAEKLKEKLKELGVEEVKIEVVEKDGKVVVEIEVKKSAGGS [r8_113_TrROS_Hall] | 2.29 ± 0.1 | 2.77 ± 0.16 | 2.53 ± 0.13
SSPSSVPDAVVQALKEAHPDVVSIEVTPLPPESTRISVTLKSGSGSSTVSFSIPSPEGVTRTYTVSVSNPSA [r9_678_JUSTAS] | 0.839 ± 0.063 | 1.18 ± 0.091 | 1.04 ± 0.064
SAGGMTIVEVEYTAYDLNSNKSVVVKAYKDPSTGKMTITSSDGVEGEFDPVTKTISLPRGSKSVTLGSAGGS [r16_743_JUSTAS] | 0.266 ± 0.074 | 0.623 ± 0.11 | 0.521 ± 0.081
SMKPEEVKVIAEIEIEVNGKKIKIKIVKKKDGTVRVEIEVDGKKIEIEVKVKSKEEAKKILEELLKKLGISA [r9_758_TrROS_Hall] | 2.93 ± 0.4 | 1.53 ± 0.14 | 2.41 ± 0.52
SAGGSMVVVPVEVTVPPEELEQYLEDLRAAYEKPGVKVEILPVEREPIRDPAGRVEEVRAKATIKIVPSAGG [r13_707_JUSTAS] | -0.511 ± 0.21 | 0.522 ± 0.042 | 0.207 ± 0.08
SAGGSAGGSAGGHKIDIEWERYEDGMYRVTITIRSNNGPRKIPFWVPPGYETADDILKQISAGGSAGGSAGG [r7_75_TrROS] | 1.8 ± 0.075 | 1.71 ± 0.066 | 1.88 ± 0.18
SWVEIPPDKIKDLMNRFQNGDWEEIVDLLKDLGFKNVTIEPQRNNGQRYFTIWVEHPDGPVIIEMPPSDISA [r9_783_TrROS] | 2.39 ± 0.082 | 2.87 ± 0.044 | 2.72 ± 0.097
SAGGSAPETLTIKVKNADGSTQTITLPAGATATSIEFNEDTGELTIHLEETGETITLPADEITEITSAGGSA [r15_133_TrROS_Hall] | 1.39 ± 0.12 | 1.33 ± 0.026 | 1.4 ± 0.11
SAGGMKTTLLKEEELPGGVKRKIYLTENSSGGYYYVVTVTTELEPPAESKVSVSSKKISPEELKKLLSAGGS [r16_45_JUSTAS] | 2.93 ± 0.14 | 3.55 ± 0.069 | 3.32 ± 0.17
SAGGKKKKIIIVLSKEEAEKKAEELKKELEKKGIEVEEVKVVEGMSEEEVKELAEKEKKPVIVIEPKSAGGS [r16_94_TrROS_Hall] | -0.158 ± 0.077 | 1.27 ± 0.075 | 0.813 ± 0.14
